A short description of the data set: label from the status in PepcDB records.

Regarding “MVLVTSVRDYINRMLQDISGMKVLILDSETVSNVSIVYSQSELLQKEVFLVEMIDSISVSKESMSHLKAVYFIRPTSDNIQKLRYQLANPRFGEYHLFFSNLLKDTQIHILADSDEQEVVQQVQEYYADFVSGDPYHFTLNMASNHLYMIPAVVDPSGLQRFSDRVVDGIAAVFLALKRRPVIRYQRTSDTAKRIAHETAKLMYQHESALFDFRRTESSPLLLVIDRRDDPVTPLLNQWTYQAMVHELIGLQDNKVDLKSIGSLPKDQQVEVVLSSEQDAFFKSNMYENFGDIGMNIKRMVDDFQQVAKSNQNIQTVEDMARFVDNYPEYKKMQGNVSKHVTLVTEMSKLVEARKLMTVSQTEQDLACNGGQGAAYEAVTDLLNNESVSDIDRLRLVMLYALRYEKENPVQLMQLFNKLASRSPKYKPGLVQFLLKQAGVEKRTGDLFGNRDLLNIARNMARGLKGVENVYTQHQPLLFQTMESITRGRLRDVDYPFVGDHFQQGRPQEVVIFMVGGTTYEESRSVALQNATNSGVRFILGGTAVLNSKRFLKDLEEAQRISRSGSHMV”, the protein production entry is recorded as “failed”.
The same measure for “MVLYIILAIIVIILIAVGVLFYLRSNKRQIIEKAIERKNEIETLPFDQNLAQLSKLNLKGETKTKYDAMKKDNVESTNKYLAPVEEKIHNAEALLDKFSFNASQSEIDDANELMDSYEQSYQQQLEDVNEIIALYKDNDELYDKCKVDYREMKRDVLANRHQFGEAASLLETEIEKFEPRLEQYEVLKADGNYVQAHNHIAALNEQMKQLRSYMEEIPELIRETQKELPGQFQDLKYGCRDLKVEGYDLDHVKVDSTLQSLKTELSFVEPLISRLELEEANDKLANINDKLDDMYDLIEHEVKAKNDVEETKDIITDNLFKAKDMNYTLQTEIEYVRENYYINESDAQSVRQFENEIQSLISVYDDILKEMSKSAVRYSEVQDNLQYLEDHVTVINDKQEKLQNHLIQLREDEAEAEDNLLRVQSKKEEVYRRLLASNLTSVPERFIIMKNEIDHEVRDVNEQFSERPIHVKQLKDKVSKIVIQMNTFEDEANDVLVNAVYAEKLIQYGNRYRKDYSNVDKSLNEAERLFKNNRYKRAIEIAEQVLESVEPGVTKHIEEEVIKQ”: “failed”.
For “MVMIWYKALFSFNGRLNRQGFWIGFGINFIFLFIIANFGPKETAFSLTMVLPLLLASYSCVAVIIKRLHDRNRSARAILMMFIPLICYGVSLATQGTMAWLLGVMMPMFIGTMLLLEWGVFKSYPQANQYGEKGETFCFT”, the protein production entry is “failed”.
As for “MVNFDEEVFRAYYEHKIKSFIKEELSNNLIKGNIFEFDIEKFLMHFPDACEVNDLIIERPKEIEEIILDIFKEAYVELFGEDKELEKIQIAFKNPKGCEKLIEEISAEDINKLVKFEGNILQAGKVNALLKKAVYYCNKRIKDENGGFLCKYTYTPCDGRVEIEIDDYFSEGEFIKDMLSPREVKKILENKKVWDKLVEKGKIPRCVDLKENDEVFKENLKEIKFILDEYDSIYVNIQEMEIQQPIDLMKNPEEPARSIRVFLENTPGIYAGRVNVIGRVMKREYRHNIPIYKIYIKSNYIKISESYNKIEVKDILRNEELIETLNELGRKKNIIDILSNYLISQIKGYELVKKAIFLQQIKGAFKFLPDGTPLRRDSHILLITDPGIGKSTMLRRIARLFPQNAYASVTTATGGGLTAIVTREATEIGDGWVVKPGVFVRANEGTACIDELTVDKNVMKYILEAMESQTIHVNKGGINVKLPARCAVLAACNPKRGRFDRNLTVIEQIDIPAPLLSRFDLIFPLMDKPNRKSDEEIAEHILNTHIETATKDYKILGAIDIDGITVDEKLLKYYIIYARSCAYIEENQDLYLGEFDETKLIMPYLTDKAKKMIKKYYLEMRKLGEGDNPIPITARQLEAIIRIAEMHAKARLSDKVEDVDAEVAISIIDDCLKQVAYDPETGTLDLDKIAGTPKSRRDKMDAVLNIIREIVSLRDDGLAPEEEIYEKAMAIGLSEKDVNDALEYLKKAGDIYNPRYGFWGLL”, the entry is “failed”.
“MVNILSLFTLAALWGGSFLFVRIAANPLGPAVLIEVRVAFAALTLLVVSFFLKKSLRFMSNIKHFLILGLFNSALPFLLFAYSAQVLNVSTLAVLNSTAPIWGAVIGAIWTRTRLSKDVIFGLILGMIGVSVLVGWEAINIGDEAIIPIITALIGAFSYGVATNYAKNAPSVEPFNNAHGSMWASVLLVLPLVPFMPVREEVTSDIIAAVFALGAVCTGLAYLLYFRLIKELGASSALTVTFIIPVFGILWGYLFLGETVGVNAIIGTILVVIGTMFVTGFASKFMSKKCV”: the protein production entry is given as “failed”.
As for “MVNLDAEIYEHLNKQIKINELRYLSSGDDSDTFLCNEQYVVKVPKRDSVRISQKREFELYRFLENCKLSYQIPAVVYQSDRFNIMKYIKGERITYEQYHKLSEKEKDALAYDEATFLKELHSIEIDCSVSLFSDALVNKKDKFLQDKKLLISILEKEQLLTDEMLEHIETIYENILNNAVLFKYTPCLVHNDFSANNMIFRNNRLFGVIDFGDFNVGDPDNDFLCLLDCSTDDFGKEFGRKVLKYYQHKAPEVAERKAELNDVYWSIDQIIYGYERKDREMLIKGVSELLQTQAEMFIF”, the protein production entry was “not failed”.
In the case of “MVNPAQARQLDKIRKVNYASNTFELIAKEWLQMKDWAEITKTRRLDMLERVVFPAIGKLPVREITPHHILKILQETAKRGAPTVAAEARRTISSVFELAVATLRADSDPVWPVRKALPALEHHHHHH”, the protein production result is “failed”.
In the case of “MVPEFIILGAAILLSICDLFFKLNHRYVALGAIAAIVLAIVSLITLYSEPAGDILNGSFVLDGFSKGFKTLLLGASALILCTAMSDDKKNPIEDKGEYYYLFLMALLGAMFMASSVDFITLFVGLELLSLSSYILVGIRKKSRASNEAAMKYVISGGIGTAITLFGMSYLYGITGSTNIVDMQKVLTGELASGIQLLLALAFLLLLVGLSFKIATVPFHMWAPDVYEGAATPVTAFLGTISKIAGFLLIIRLFLMIFASVLIQGDMQSLYGHMSIYIAVLASITMIVGNVVALKQYNIKRLFAYSGIAHAGYLLVPLVALSPFTMDSMWFYMLAYMLMNIGAFAIIHGLILQNNEENITIFTGLYKRSPFTAIMMTIFILSLAGIPGTAGFIGKINIFLGALHVEPAHYVLASIMMGTTVVSFVYYFRILQQMFFRTGETEERIRLPLNIKVVMSLCAISIVILGIMPMIGYNFFYEYFPLMKDFFFLGNVVQ”, the protein production result was “not failed”.
Take “MVPEITIDVNVFPSPRKSSSNTVEINLKRESDDKCDDAPLFQITQLILKDVVNFDPHKTSPLLETIFPDSISGTRLCVEMALASERVPAPFDMYLHVTVRFVEESTSSSPLENKTCAICLEDMSQDVHDYQEMPNCPHVFHNDCIYKWLGHSNLCPLCRTVLEDEDDDDYPYYS”: the protein production result is recorded as “failed”.
In the case of “MVPSGVRTGRWVAAARAAQRRPRVDSLGQPPSPESASTRAALYVHWPYCEKRCSYCNFNKYIPRGVEEGTVRNCLVTEARTLLRLSGVQRVESVFFGGGTPSLASPHTVAAVLEAVAQEVYLPADSEVTLEANPTSAPGPRLAAFGAAGVNRLSIGLQSLDDAELQLLGRTHSASDALRTLAEARLLFPGRVSVDLMLGLPAQKVEPWLQQLQKLLYHCDDHLSLYQLTLERGTSLFAQVQQGTLPAPDPDLAAEMYQEGRTVLRDAGFRQYEVSNFARNGALSTHNWTYWQCGQYLGIGPGAHGRFVPQGTGGHTREARIQTLEPDNWMKEVTLFGHGTRKCVRLGKLELLEEVLAMGLRTDVGVTHQHWQQFEPQLTLWDVFGASKEVEELLAQGLLLLDYRGLRCSWEGLAVLDSLLLTLLPQLQEAWQHRPSSPVSGG”, the protein production result is recorded as “failed”.
Consider “MVPTPKPVVDRMLELADVDETDVLYDLGSGDGRIVIRAARTHGARGVGIEIDPDLVKKARKNAKEAGVADLVEFRQGDLFEADISEATVVTLYLLPSVNQKLRPILFEQLSPGTPVVSHDFDMGRWAPDRTVDLEGDTVYRWTIPLEHHHHHH”, for which the protein production result is on record as “failed”.
Consider “MVQQSEVRQMKHSVSTLNQEMTQLNQETVKITQQNRLNAKSSSGVYLLPGAKTPARLESQIGTLRMSLVNITPDADGTTLTLRIQGESNDPLPAFSGTVEYGQIQGTIDNFQEINVQNQLINAPASVLAPSDVDIPLQLKGISVDQLGFVRIHDIQPVMQLEHHHHHH”, for which the protein production result was “not failed”.
On to “MVRIRWFFIRHAESEANVVERWRIAGRSEAARLTERGERQARVVGEAVAIRLEQVLRVDGGDAGGVSGDAGRRRVLAPVAFTSPLLRARQTAALVLEQVAQPVKLEPVDDLAEVYQGLWEDALRSEVHTPETLQAMARNPYEFRAPGGEAQADVERRVLRAVSRMSQRVLSLLSLELEENEQTDVIVLVFTHGYVCKCLIRSVLDASPHLTGQIQVDNGALVELWLEPAAQQGALTSAAELGMWTVLRINDTWGQLTASMR”, for which the protein production result is recorded as “failed”.
In the case of “MVRKALLFVIDVALTYFAGVVALFSRFGFDFQEMSRYDESVIVYTVISAVVYILNGNYSIVWEYANARDFLILIRGSVISYLSNLAFFYVYRGIVLPRSVGFAVFLGSMVLLVLSRITWQWMIVNGRGKVPGEKRILIIGAGDAGVSILEEFEKHPHLGKIVAFVDDSPRKIGRKVRGVPVFGPIEKTMEFVEKMNVDEIVIAIPSASRAEMERILKSIDLKKVRVKTLPSVRELIEGRVRISHLKEISIEDLLGREEVKVDFHEIGKFLKGKKILVTGAGGSIGSELCKQIARMNPAEIFLLGHGETSIYLINEFLTEHFPEVKKKRIIADVADRKIMEHWLTQLRPDVIFHVAAHKHVPLMEENPLEAFRVNVLGTMNLVELSERLGVKYFVFISTDKAVNPTSVMGLTKRIAELYILSREKNSTNFSIVRFGNVLGSRGSVVEKFRRQIEKGGPVTVTDPRMKRYFMSIPEAVSLILQSLLFSSGKDLFILDMGEQIPILKLAETMIMLSGYTPYQDIKIVFTGIRPGEKMYEELLYPYEVKELTPHSKIFRVKTSVLPGKESVEQAINRMKEAFENSDVKGLLTEMKKLVPEAQINVGSDN”, the protein production result is “failed”.
As to “MVRLEDYGTWDEALKRLEASRKALLALLREADPAWLSAPLREGAWTPLMVAEHVALVEDSTARVLRRLRRLAAGENLPPVPVKPGEFKDGKPQAPEGVRPKGGLSLEEVLALLDRARAFLLEEVAKADPQNPATFPHPFFGELNPLGWLRAAAYHEAHHLKALQASLPR”, the protein production entry is “not failed”.
For the sequence “MVRLFGPLVGLFFAVALLWSFGNGAYVAITEPAAPTAESVFHKHPKELDLASNGAFGRFDKQQLQRGFQVYKEVCATCHSLKQIAFRDLAALGYSEAEVKAIAKGWPTKAATFNPVTGDRGERDNIPSDRIPAVYYAGQGVPPDLSLMTKARHDGGAYVYSLLTGYAEQPAELLKQFPDAKTPDGLHYNPYFANLNLAMPAPLTTDGQVTYSDGTKASVDQMAKDVSAFLVWTAEPKLDKRKQTGWAVLGFLLVATVLAYLAKKNVWADKH”, the protein production entry was “failed”.
“MVRMQTKAVMVFKLDEEGNAFYTQDIGDLYIFISRSEPFCVPASSFPGMFSNFVELLDVNENVTVDLSDYSMNGGFGYFGAPAHIPPQKLD”: the protein production entry is on record as “failed”.
As to “MVRPYGIKVNKRKEREERYDKEEDEVEEQPKFEQKQKARESSKKAKKESTSRAEEDNDEEEVTVEATAAAEDIVGGIPIVLNAPNKEKSGIVFVLEKASLEVAKVGKTYQLLNSDDHANFLKKNNRNPADYRPDITHQALLMILDSPVNKAGRLKAVYVRTEKGVLFEVKPHVRIPRTFKRFAGIMLQLLQKLSITAVNSREKLLRCVKNPIEEHHLPVNSHRIGFSHSSEKLVNMQKHLATVCDDDRDTVFVVGAMAHGKIDCNYIDEFVSVSEYPLSAAYCISRICEALATNWNII”, the protein production result is recorded as “failed”.
